Assays:
recombinant MMP-14 = recombinant MMP-14 (Homo sapiens, UniProt P50281); assay type: biochemical; details: ICT 10 mM, recombinant MMP-14 20 μg/mL, PBS buffer, 37 °C, identical conditions (2 hours); HPLC
MMTV-PyMT tumor cells = assay: Caspase-3/7 assay; assay type: cell-based, murine; details: DEVD-AMC fluorescence, triplicate samples, printed as x:1
MMTV-PyMT tumors [1] = assay: In vivo T2-weighted MR imaging of tumor accumulation; set-up: species or system mouse; details: single IV injection: ferumoxytol 0.5 mmol Fe/kg, CLIO-ICT 0.75 mmol Fe/kg, ICT 1.0 μmol/kg; up to 24 h; n=6
PyMT tumors = assay: Antitumor activity, daily tumor size; assay type: in vivo, mouse; details: calipers, daily for 7 days after single IV injection; n=6 mice
[2] = test system: normal organs (liver, spleen, kidney, brain, bone marrow and heart); assay: Toxicity in normal organs; assay type: in vivo, mouse; details: histology and caspase-3 activity
[3] = Iron oxide core size by TEM; assay type: physicochemical; details: after functionalization
[4] = Number of ICT molecules per nanoparticle, from FITC absorption and emission; assay type: physicochemical; details: from attached fluorescein absorption at 492 nm and known TNP concentration
[5] = Dynamic Light Scattering, nanoparticle size; assay type: physicochemical; details: nanoparticle size by DLS; PBS buffer, filtered 0.2 μm, diluted to 0.6 mM iron
MMTV-PyMT tumors [6] = assay: Tumor histology; assay type: in vivo, mouse
human dermal fibroblasts = assay: Caspase-3/7 assay; assay type: cell-based; details: MMP-14 negative fibroblasts
4T1 cells = assay: Caspase-3/7 assay; assay type: cell-based, murine; details: low MMP-14
[7] = r1 and r2 relaxivities by NMR; assay type: physicochemical; details: relaxivity; 1 – 60 mM iron; Varian Inova 300MHz (7 Tesla) NMR
[8] = Laser Doppler Electrophoresis, zeta potential; assay type: physicochemical

Substance | prodrug cleaved by MMP-14 (recombinant MMP-14) | caspase expression ratio relative to the PBS control (MMTV-PyMT tumor cells) | tumor enhancement on postcontrast T2-weighted MR images (MMTV-PyMT tumors [1]) | change in tumor size (PyMT tumors) | toxicity or cell death in normal tissues [2] | iron oxide core size [3] | # of ICT (ICT molecules per iron oxide nanoparticle) [4] | D (DLS) [5] | iron deposits in tumors (Prussian Blue) (MMTV-PyMT tumors [6]; 48 hours after intravenous administration) | tumor necrosis (pathologic evaluation, H&E) (MMTV-PyMT tumors [6]; MMTV-PyMT tumors) | Cy3-labeled cleaved Caspase-3 immunofluorescent staining of tumor cells (MMTV-PyMT tumors [6]; MMTV-PyMT tumors, 48 hours after administration) | cytotoxic effects (caspase assay) (human dermal fibroblasts) | response to treatment (caspase assay) (4T1 cells) | r1 [7] | Z (zeta potential) ([8]; Laser Doppler Electrophoresis, PBS buffer, filtered 0.2 μm, 0.6 mM iron) | charge of the nanoparticle ([8]; sign of zeta potential, laser Doppler electrophoresis)
FITC-βAla-Cys-Arg-Ser-Cit-Gly-HPhe-Tyr-Leu-Tyr [ICT] | 89% | 2.994 | did not show any significant MR signal enhancement |  |  |  |  |  |  |  |  |  |  |  |  | 
FITC-βAla-Cys-Arg-Ser-Cit-Gly-HPhe-Tyr-Leu-Tyr [CLIO-ICT] |  | 2.883 | negative (dark) enhancement | overall decrease in tumor size | no toxicity or cell death | 6.5±0.7 nm | 4.7±0.4 | 21±3 nm | Iron deposits were noted | progressive increase in the severity of tumor necrosis | significant labeling of tumor cells | did not show any significant cytotoxic effects | not responsive | 38.9 mM⁻¹ s⁻¹ | +21±7 meV | positive

From publication PMC3946335 (Small (Weinheim an der Bergstrasse, Germany), 2013)
